The target of experiment [1] is LTBP-proTGFβ1: transfected human proTGFβ1 presented by endogenous LTBP1/3 of LN229 cells (human). Briefly: cell-based or functional assay.
Experiment [2] addresses T1, mouse LTBP1-proTGFβ1 complex (mouse, UniProt Q8CG19 339-1712; P04202 30-390). In words: cell-based or functional assay.
The target in experiment [3] is T2, human LTBP1-proTGFβ1 complex (human, UniProt Q14766 347-1721; P01137 30-390).
T2 construct: Large latent complex: one presenting molecule disulfide-linked to a proTGFβ1 dimer; also called Hu LTBP1-proTGFβ1; huLTBP1 proTGFβ1
Briefly: Octet BLI, IgG captured. Here is the method: (§1) Binding affinities of the optimized antibodies were measured by Octet against human LTBP1-proTGFβ1, human LTBP3-proTGFβ1, mouse LTBP1-proTGFβ1, mouse LTBP3-proTGFβ1, and GARP-proTGFβ1 complexes, essentially as described in Example 6. […] The antigens were allowed to associate for 3 minutes followed by a 5-minute dissociation. Kinetics buffer (ForteBio®) was used throughout the experiment, and KD was determined using a 1:1 fitting model for each antibody antigen pair.

Experiment [4] has as its target T3, human LTBP3-proTGFβ1 complex (human, UniProt Q9NS15 44-1303; P01137 30-390, limits assumed).
T3 construct: Exemplary entries; also called Hu LTBP3-proTGFβ1; huLTBP3 proTGFb1
Briefly: Octet BLI, IgG captured. Here is the method:
as §1

Experiment [5] concerns the target T1, mouse LTBP1-proTGFβ1 complex. In words: Octet BLI, IgG captured. The procedure:
as §1
(In general: BLI is a label-free optical method that tracks binding on a fibre tip over time.)

Experiment [6] deals with T4, mouse LTBP3-proTGFβ1 complex (mouse, UniProt Q61810 41-1245; P04202 30-390, limits assumed).
T4 construct: Exemplary entries; also called Mo LTBP3-proTGFβ1; Murine LTBP3 proTGFb1
Briefly: Octet BLI, IgG captured. The procedure:
as §1

Experiment [7] concerns the target T5, human GARP-proTGFβ1 complex (human, UniProt Q14392 18-627; P01137 30-390, limits assumed).
T5 construct: Exemplary entries; also called Hu GARP-proTGFβ1; huGARP proTGFb1
Briefly: Octet BLI, IgG captured. Here is the method:
as §1

The target in experiment [8] is T5, human GARP-proTGFβ1 complex. In words: Octet BLI, Table 10 (repeats Table 9). Here is the method: as §1
Table 9 presents the binding profile and affinity data for the indicated LTBP complex-specific antibodies (IgG1-agly) identified from the light chain optimization cycle 3, determined by Octet.

Where “and” joins values, the source holds several entries; their conditions need not be identical. Identical values can stand only once.

T1 sequence (Q8CG19 339-1712 limits assumed, chain 1 of 2): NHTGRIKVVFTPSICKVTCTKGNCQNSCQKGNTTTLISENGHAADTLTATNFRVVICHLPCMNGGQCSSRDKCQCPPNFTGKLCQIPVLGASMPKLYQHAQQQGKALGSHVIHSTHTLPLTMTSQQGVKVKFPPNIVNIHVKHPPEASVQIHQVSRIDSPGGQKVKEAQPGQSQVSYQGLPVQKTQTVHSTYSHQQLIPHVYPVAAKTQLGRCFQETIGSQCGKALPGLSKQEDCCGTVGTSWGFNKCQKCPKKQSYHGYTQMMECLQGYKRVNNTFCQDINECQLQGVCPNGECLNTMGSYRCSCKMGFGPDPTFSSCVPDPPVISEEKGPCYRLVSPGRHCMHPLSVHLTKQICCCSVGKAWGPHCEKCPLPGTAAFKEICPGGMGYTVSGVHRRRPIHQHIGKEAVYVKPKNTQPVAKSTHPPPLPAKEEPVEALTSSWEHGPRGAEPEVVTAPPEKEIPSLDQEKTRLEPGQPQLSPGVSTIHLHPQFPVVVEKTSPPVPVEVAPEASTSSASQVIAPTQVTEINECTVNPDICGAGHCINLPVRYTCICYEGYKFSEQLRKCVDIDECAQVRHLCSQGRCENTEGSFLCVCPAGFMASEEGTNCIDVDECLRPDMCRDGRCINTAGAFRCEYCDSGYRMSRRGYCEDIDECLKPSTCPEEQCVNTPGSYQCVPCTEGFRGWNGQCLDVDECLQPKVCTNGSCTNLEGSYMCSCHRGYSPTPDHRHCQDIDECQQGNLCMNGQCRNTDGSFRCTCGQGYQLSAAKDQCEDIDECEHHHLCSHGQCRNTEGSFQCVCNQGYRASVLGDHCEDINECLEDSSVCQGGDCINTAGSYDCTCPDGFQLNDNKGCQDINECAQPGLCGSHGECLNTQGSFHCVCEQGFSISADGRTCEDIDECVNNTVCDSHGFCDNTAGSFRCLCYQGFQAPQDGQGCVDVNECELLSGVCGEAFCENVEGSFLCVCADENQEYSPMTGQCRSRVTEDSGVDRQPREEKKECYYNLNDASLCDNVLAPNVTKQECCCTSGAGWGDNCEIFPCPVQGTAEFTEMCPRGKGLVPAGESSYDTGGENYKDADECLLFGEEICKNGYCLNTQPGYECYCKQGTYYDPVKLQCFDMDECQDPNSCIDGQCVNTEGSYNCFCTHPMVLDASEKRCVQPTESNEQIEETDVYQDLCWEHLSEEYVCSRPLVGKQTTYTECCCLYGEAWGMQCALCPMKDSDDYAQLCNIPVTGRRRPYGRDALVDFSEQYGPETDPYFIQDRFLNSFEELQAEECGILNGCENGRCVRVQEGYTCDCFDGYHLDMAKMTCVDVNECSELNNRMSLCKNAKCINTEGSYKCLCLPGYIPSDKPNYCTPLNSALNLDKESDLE
T1 sequence (P04202 30-390 limits assumed, chain 2 of 2): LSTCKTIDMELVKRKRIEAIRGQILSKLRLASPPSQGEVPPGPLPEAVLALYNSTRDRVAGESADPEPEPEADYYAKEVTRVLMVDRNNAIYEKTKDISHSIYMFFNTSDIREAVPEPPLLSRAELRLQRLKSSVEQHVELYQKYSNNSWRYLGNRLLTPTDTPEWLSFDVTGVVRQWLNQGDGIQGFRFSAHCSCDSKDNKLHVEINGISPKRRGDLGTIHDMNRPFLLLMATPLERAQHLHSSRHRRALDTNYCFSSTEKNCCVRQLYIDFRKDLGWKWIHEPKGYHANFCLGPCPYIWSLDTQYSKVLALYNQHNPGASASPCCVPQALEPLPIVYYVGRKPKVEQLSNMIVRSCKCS
T5 sequence (Q14392 18-627 limits assumed, chain 1 of 2): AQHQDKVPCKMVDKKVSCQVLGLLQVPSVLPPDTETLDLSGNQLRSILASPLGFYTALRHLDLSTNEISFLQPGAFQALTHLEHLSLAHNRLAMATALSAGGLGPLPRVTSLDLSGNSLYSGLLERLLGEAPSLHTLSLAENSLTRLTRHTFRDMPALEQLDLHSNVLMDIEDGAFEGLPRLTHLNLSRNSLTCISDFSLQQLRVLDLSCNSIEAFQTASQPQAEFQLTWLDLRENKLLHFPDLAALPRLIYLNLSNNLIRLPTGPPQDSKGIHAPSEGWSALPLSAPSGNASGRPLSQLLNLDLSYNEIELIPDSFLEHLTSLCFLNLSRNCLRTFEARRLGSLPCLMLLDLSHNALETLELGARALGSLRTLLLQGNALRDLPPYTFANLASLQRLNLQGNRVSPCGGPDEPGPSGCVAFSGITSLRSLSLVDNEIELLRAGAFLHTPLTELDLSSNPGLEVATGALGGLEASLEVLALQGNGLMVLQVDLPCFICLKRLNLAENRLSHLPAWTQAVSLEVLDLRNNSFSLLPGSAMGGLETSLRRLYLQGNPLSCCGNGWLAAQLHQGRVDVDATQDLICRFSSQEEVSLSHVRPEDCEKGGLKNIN
T5 sequence (P01137 30-390 limits assumed, chain 2 of 2): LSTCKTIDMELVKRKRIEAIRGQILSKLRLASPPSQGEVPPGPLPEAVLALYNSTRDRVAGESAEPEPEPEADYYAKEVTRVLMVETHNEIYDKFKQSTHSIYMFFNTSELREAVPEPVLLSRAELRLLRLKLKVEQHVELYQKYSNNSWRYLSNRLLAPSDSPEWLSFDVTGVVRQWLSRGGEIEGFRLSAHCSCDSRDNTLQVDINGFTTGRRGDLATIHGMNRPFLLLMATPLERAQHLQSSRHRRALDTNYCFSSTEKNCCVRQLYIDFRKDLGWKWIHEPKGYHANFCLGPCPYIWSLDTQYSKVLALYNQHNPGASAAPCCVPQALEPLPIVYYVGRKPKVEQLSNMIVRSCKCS
T3 sequence (Q9NS15 44-1303 limits assumed, chain 1 of 2): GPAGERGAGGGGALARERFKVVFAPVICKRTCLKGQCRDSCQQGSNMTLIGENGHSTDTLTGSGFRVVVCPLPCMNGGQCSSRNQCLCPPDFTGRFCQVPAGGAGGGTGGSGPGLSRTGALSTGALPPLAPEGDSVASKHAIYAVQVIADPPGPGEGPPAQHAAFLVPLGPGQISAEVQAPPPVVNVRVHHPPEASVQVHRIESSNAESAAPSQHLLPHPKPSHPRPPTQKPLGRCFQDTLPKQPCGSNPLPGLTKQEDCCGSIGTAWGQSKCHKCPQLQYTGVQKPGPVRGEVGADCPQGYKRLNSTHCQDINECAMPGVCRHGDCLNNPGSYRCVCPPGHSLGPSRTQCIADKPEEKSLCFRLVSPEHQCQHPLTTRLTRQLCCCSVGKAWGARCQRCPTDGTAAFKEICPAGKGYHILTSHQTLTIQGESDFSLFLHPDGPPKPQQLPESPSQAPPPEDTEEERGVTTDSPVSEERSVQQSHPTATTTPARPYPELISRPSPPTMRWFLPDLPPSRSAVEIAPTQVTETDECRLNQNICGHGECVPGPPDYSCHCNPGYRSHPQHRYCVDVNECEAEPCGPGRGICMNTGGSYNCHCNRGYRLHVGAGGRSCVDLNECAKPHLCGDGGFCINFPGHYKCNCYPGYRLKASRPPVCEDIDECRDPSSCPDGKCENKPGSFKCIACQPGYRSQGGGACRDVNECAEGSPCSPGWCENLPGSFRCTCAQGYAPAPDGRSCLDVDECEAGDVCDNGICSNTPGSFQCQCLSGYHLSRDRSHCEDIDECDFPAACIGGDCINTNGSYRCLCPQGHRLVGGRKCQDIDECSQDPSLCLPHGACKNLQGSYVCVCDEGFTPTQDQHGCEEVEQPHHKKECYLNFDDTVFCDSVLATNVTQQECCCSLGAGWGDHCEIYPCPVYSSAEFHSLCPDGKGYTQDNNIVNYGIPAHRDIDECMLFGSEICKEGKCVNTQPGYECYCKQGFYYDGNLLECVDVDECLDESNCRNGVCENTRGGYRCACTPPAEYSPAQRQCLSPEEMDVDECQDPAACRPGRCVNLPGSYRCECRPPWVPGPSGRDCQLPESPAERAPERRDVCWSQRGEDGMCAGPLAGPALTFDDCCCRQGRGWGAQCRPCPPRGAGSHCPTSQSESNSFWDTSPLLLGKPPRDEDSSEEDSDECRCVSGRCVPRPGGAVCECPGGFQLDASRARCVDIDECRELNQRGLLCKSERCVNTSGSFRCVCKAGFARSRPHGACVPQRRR
T3 sequence (P01137 30-390 limits assumed, chain 2 of 2): as the sequence (P01137 30-390 limits assumed, chain 2 of 2) above
Sequence of LTBP-proTGFβ1: transfected human proTGFβ1 presented by endogenous LTBP1/3 of LN229 cells (human) (P01137 30-390): as the sequence (P01137 30-390 limits assumed, chain 2 of 2) above

B1: SR-AB31 (antibody, IgG1, V domains shown)
VH: QVQLVESGGGVVQPGRSLRLSCAASGFTFRSYVMHWVRQAPGKGLEWVAVISHEGSLKYYADSVKGRFTISRDNSKNTLYLQMNSLRAEDTAVYYCAVPRIAARRGGFGYWGQGTLVTVSS
VL: NFMLTQPHSVSESPGKTVTISCTRSSGNIDNNYVQWYQQRPGSSPTTVIYEDNQRPSGVPDRFSGSIDSSSNSASLTISGLKTEDEADYYCQSYDFNNQGVVFGGGTKLTVL
notes: Cycle 3, lineage SR-AB22
What is called Kd is the equilibrium constant for the complex coming apart. As usually defined, the koff is the first-order rate constant of dissociation. Low values mean slow dissociation, high ones fast dissociation. One may read the kon as a measure of how fast the partners come together. High values mean faster complex formation, low ones slower complex formation. On to B1, for which the “IC50, endogenous hLTBP assay (CAGA12 luciferase)” value (from here on “IC50, endogenous hLTBP assay”) in experiment [1] was 1.26 nM and 1.56 nM. In addition, in experiment [2], the “IC50, mLTBP1 assay (CAGA12 luciferase)” value stood at 0.431 nM. Also, the Kd is 0.412 nM in experiment [3]; 0.221 nM in experiment [4]; 0.682 nM in experiment [5]; 0.589 nM in experiment [6]; 11.2 nM in experiment [7]; 11.2 nM in experiment [8]. Also, the koff in experiment [3] is 9.89e-05 s⁻¹; in experiment [4] it was 6.81e-05 s⁻¹. The results for the kon in experiment [3] and in experiment [4] were 240000 M⁻¹ s⁻¹ and 308000 M⁻¹ s⁻¹, respectively.

B2: SR-AB37 (antibody, IgG1, V domains shown)
VH: QVQLVESGGGVVQPGRSLRLSCAASGFTFRSYVMHWVRQAPGKGLEWVAVISHEGSLKYYADSVKGRFTISRDNSKNTLYLQMNSLRAEDTAVYYCAVPRIAARRGGFGYWGQGTLVTVSS
VL: NFMLTQPHSVSESPGKTVTISCTRSSGLIDDNYVQWYQQRPGSSPTTVIYEDNQRPSGVPDRFSGSIDSSSNSASLTISGLKTEDEADYYCQSYDSDLQRVVFGGGTKLTVL
notes: Cycle 3, lineage SR-AB22
As for B2, the “IC50, endogenous hLTBP assay” value in experiment [1] was found to be 1.93 nM. In experiment [2], the “IC50, mLTBP1 assay (CAGA12 luciferase)” value stood at 0.543 nM. Moreover, the Kd is 0.328 nM in experiment [3]; 0.139 nM in experiment [4]; 0.384 nM in experiment [5]; 0.325 nM in experiment [6]; 36.1 nM in experiment [7]; 36.1 nM in experiment [8]. Moreover, the results for the koff in experiment [3] and in experiment [4] were 0.000118 s⁻¹ and 7.58e-05 s⁻¹, respectively. In addition, the values for the kon in experiment [3] and in experiment [4] were 360000 M⁻¹ s⁻¹ and 545000 M⁻¹ s⁻¹, respectively.

B3: SR-AB39 (antibody, IgG1, V domains shown)
VH: QVQLVESGGGVVQPGRSLRLSCAASGFTFRSYVMHWVRQAPGKGLEWVAVISHEGSLKYYADSVKGRFTISRDNSKNTLYLQMNSLRAEDTAVYYCAVPRIAARRGGFGYWGQGTLVTVSS
VL: NFMLTQPHSVSESPGKTVTISCTRSSGLIDDNYVQWYQQRPGSSPTTVIYEDAQRPSGVPDRFSGSIDSSSNSASLTISGLKTEDEADYYCQSYDHDEQGVVFGGGTKLTVL
notes: Cycle 3, lineage SR-AB22
For the molecule B3, the “IC50, endogenous hLTBP assay” value in experiment [1] was 1.01 nM. In addition, the “IC50, mLTBP1 assay (CAGA12 luciferase)” value in experiment [2] was 0.479 nM. Moreover, the Kd in experiment [3] was determined as 0.205 nM; in experiment [4], 0.136 nM; in experiment [5] it was 0.232 nM; in experiment [6] it was 0.342 nM; in experiment [7], 389 nM; in experiment [8] it was 389 nM. The koff in experiment [3] and in experiment [4] was 6e-05 s⁻¹ throughout. Moreover, the on-rate constant (kon) in experiment [3] is 292000 M⁻¹ s⁻¹; in experiment [4], 441000 M⁻¹ s⁻¹.

B4: SR-AB34 (antibody, IgG1, V domains shown)
VH: QVQLVESGGGVVQPGRSLRLSCAASGFTFRSYVMHWVRQAPGKGLEWVAVISHEGSLKYYADSVKGRFTISRDNSKNTLYLQMNSLRAEDTAVYYCAVPRIAARRGGFGYWGQGTLVTVSS
VL: NFMLTQPHSVSESPGKTVTISCTRSSGNIDNNYVQWYQQRPGSSPTTVIYEDNQRPSGVPDRFSGSIDSSSNSASLTISGLKTEDEADYYCQSYDYDAQGVVFGGGTKLTVL
notes: Cycle 3, lineage SR-AB22
With B4, the “IC50, endogenous hLTBP assay” value in experiment [1] turned out to be 0.909 nM. Further, the “IC50, mLTBP1 assay (CAGA12 luciferase)” value in experiment [2] stood at 0.423 nM. For the same molecule, the Kd in experiment [3] worked out at 0.231 nM; in experiment [4], 0.179 nM; in experiment [5] it was 0.417 nM; in experiment [6], 0.45 nM; in experiment [7] it was 73.5 nM; in experiment [8], 73.5 nM. The koff in experiment [3] came to 6e-05 s⁻¹; in experiment [4], 6.68e-05 s⁻¹. The values for the kon in experiment [3] and in experiment [4] were 259000 M⁻¹ s⁻¹ and 372000 M⁻¹ s⁻¹, respectively.
